The values below come from article PMC10783083, “Val43 residue of NsrR is crucial for the nitric oxide response of Salmonella Typhimurium”.

Series [1] has as its target NsrR V43A (Salmonella enterica serovar Typhimurium …, UniProt Q8ZKA3 1-141, V43A). Put plainly: EMSA; no NO; 0.0625-4 uM protein; stronger than WT. To be noted: protein: recombinant; tags: N-terminal His (pET28a); chain copies: 2; label: 32P (5' by T4 PNK); blunt. In general terms: A gel shift assay detects complexes by their altered migration in electrophoresis.
In series [2] the target is NsrR V43A, in vitro translated (Salmonella enterica serovar Typhimurium …, UniProt Q8ZKA3 1-141, V43A). Put plainly: EMSA; 2 uM; clear shift. To be noted: protein: ivt; tags: N-terminal His (pET28a); chain copies: 2; label: 32P (5' by T4 PNK); blunt.

B1: hmp probe (dsDNA)
DNA 1: AAGATGCATTTGATATACATCATT
DNA 2: AATGATGTATATCAAATGCATCTT
In the case of B1, the binding result in series [1] and in series [2] was “binds” in each case.
